Data reported in patent publication US20070071744A1 (published 2007).
Ends that are not written are not given here.

How the values were obtained:
Assay in all cases: PepSpot peptide array
peptide 20 = target: T1, peptide 20 (human)
T1 peptide: Ac-PLEKPVTLRCQGP
Procedure: (§1) The peptides were synthesized on a cellulose membrane in a stepwise manner resulting in a defined arrangement (peptide array) and are covalently bound to the cellulose membrane. Binding assays were performed directly on the peptide array. In general an antigen peptide array is incubated with blocking buffer for several hours to reduce non-specific binding of proteins or antibodies. It follows the incubation with a primary (antigen peptide-binding) antibody in blocking buffer and an incubation with a horseradish peroxidase (HRP)-labelled secondary antibody, which binds selectively the primary antibody. Alternatively a HRP-labelled primary antibody in blocking buffer can be used.
(§2) A short T(Tween)-TBS-buffer washing directly after the incubation of the antigen peptide array with the secondary protein or antibody or the HRP-labelled primary antibody followed by the first chemiluminescence experiment is made to get an first overview which antigen peptides do bind the primary antibody. Several buffer washing steps follow (T-TBS- and TBS-buffer) to reduce false positive binding (unspecific antibody binding to the cellulose membrane itself). After these washing steps the final chemiluminescence analysis is performed. The data were analysed with an imaging system showing the signal intensity (Light units, LU) as single measurements for each peptide. In order to evaluate non-specific binding of secondary antibodies, incubations using the secondary antibody have to be performed in the absence of the primary antibody as control incubation.

peptide 93 = target: T2, peptide 93 (human)
T2 peptide: Ac-SRDPYLWSAPSDP
Procedure: as §1, §2

peptide 46 = target: T3, peptide 46 (human)
T3 peptide: Ac-QNGSLWSLPSDQL
Procedure: as §1, §2

peptide 13 = target: T4, peptide 13 (human)
T4 peptide: Ac-LPKPSLQALPSSL
Procedure: as §1, §2

peptide 56 = target: T5, peptide 56 (human)
T5 peptide: Ac-FAKPSLSAQPGPA
Procedure: as §1, §2

peptide 81 = target: T6, peptide 81 (human)
T6 peptide: Ac-YRASFPIITVTAA
Procedure: as §1, §2

peptide 38 = target: T7, peptide 38 (human)
T7 peptide: Ac-IPAMKRSLAGRYR
Procedure: as §1, §2

peptide 76 = target: T8, peptide 76 (human)
T8 peptide: Ac-PAPYKNPERWYRA
Procedure: as §1, §2

peptide 107 = target: T9, peptide 107 (human)
T9 peptide: Ac-PTEPPSSVAEFSE
Procedure: as §1, §2

peptide 110 = target: T10, peptide 110 (human)
T10 peptide: Ac-SVAEFSEATAELT
Procedure: as §1, §2

peptide 114 = target: T11, peptide 114 (human)
T11 peptide: Ac-TAELTVSFTNKVF
Procedure: as §1, §2

peptide 30 = target: T12, peptide 30 (human)
T12 peptide: Ac-LEKLSSSRYQDQA
Procedure: as §1, §2

peptide 75 = target: T13, peptide 75 (human)
T13 peptide: Ac-GDPAPYKNPERWY
Procedure: as §1, §2

peptide 72 = target: T14, peptide 72 (human)
T14 peptide: Ac-FALYKEGDPAPYK
Procedure: as §1, §2

peptide 50 = target: T15, peptide 50 (human)
T15 peptide: Ac-PSDQLELVATGVF
Procedure: as §1, §2

peptide 21 = target: T16, peptide 21 (human)
T16 peptide: Ac-EKPVTLRCQGPPG
Procedure: as §1, §2

peptide 82 = target: T17, peptide 82 (human)
T17 peptide: Ac-ASFPIITVTAAHS
Procedure: as §1, §2

peptide 122 = target: T18, peptide 122 (human)
T18 peptide: Ac-TSRSITTSPKESD
Procedure: as §1, §2

peptide 45 = target: T19, peptide 45 (human)
T19 peptide: Ac-SYQNGSLWSLPSD
Procedure: as §1, §2

peptide 90 = target: T20, peptide 90 (human)
T20 peptide: Ac-RCYSFSSRDPYLW
Procedure: as §1, §2

peptide 121 = target: T21, peptide 121 (human)
T21 peptide: Ac-TETSRSITTSPKE
Procedure: as §1, §2

peptide 44 = target: T22, peptide 44 (human)
T22 peptide: Ac-RCSYQNGSLWSLP
Procedure: as §1, §2

peptide 61 = target: T23, peptide 61 (human)
T23 peptide: Ac-GPAVSSGGDVTLQ
Procedure: as §1, §2

peptide 79 = target: T24, peptide 79 (human)
T24 peptide: Ac-PERWYRASFPIIT
Procedure: as §1, §2

peptide 101 = target: T25, peptide 101 (human)
T25 peptide: Ac-VVTGTSVTPSRLP
Procedure: as §1, §2

peptide 3 = target: T26, peptide 3 (human, cysteine pairing not given here)
T26 peptide: Ac-PTALFCLGLCLGR
Procedure: as §1, §2

peptide 83 = target: T27, peptide 83 (human)
T27 peptide: Ac-FPIITVTAAHSGT
Procedure: as §1, §2

peptide 36 = target: T28, peptide 36 (human)
T28 peptide: Ac-AVLFIPAMKRSLA
Procedure: as §1, §2

peptide 24 = target: T29, peptide 24 (human)
T29 peptide: Ac-RCQGPPGVDLYRL
Procedure: as §1, §2

peptide 42 = target: T30, peptide 42 (human)
T30 peptide: Ac-AGRYRCSYQNGSL
Procedure: as §1, §2

peptide 88 = target: T31, peptide 88 (human)
T31 peptide: Ac-SGTYRCYSFSSRD
Procedure: as §1, §2

peptide 94 = target: T32, peptide 94 (human)
T32 construct: also called DPYLWSAPSDPLE
T32 peptide: Ac-DPYLWSAPSDPLE
Procedure: as §1, §2

peptide 124 = target: T33, peptide 124 (human)
T33 peptide: Ac-ITTSPKESDSPAG
Procedure: as §1, §2

peptide 129 = target: T34, peptide 129 (human)
T34 peptide: Ac-PAGPARQYYTKGN
Procedure: as §1, §2

peptide 69 = target: T35, peptide 69 (human)
T35 peptide: Ac-RYGFDQFALYKEG
Procedure: as §1, §2

peptide 130 = target: T36, peptide 130 (human)
T36 peptide: Ac-GPARQYYTKGNGG
Procedure: as §1, §2

peptide 59 = target: T37, peptide 59 (human)
T37 peptide: Ac-SAQPGPAVSSGGD
Procedure: as §1, §2

peptide 52 = target: T38, peptide 52 (human)
T38 peptide: Ac-LELVATGVFAKPS
Procedure: as §1, §2

peptide 6 = target: T39, peptide 6 (human)
T39 peptide: Ac-LGLCLGRVPAQSG
Procedure: as §1, §2

peptide 18 = target: T40, peptide 18 (human)
T40 peptide: Ac-SSLVPLEKPVTLR
Procedure: as §1, §2

peptide 53 = target: T41, peptide 53 (human)
T41 peptide: Ac-LVATGVFAKPSLS
Procedure: as §1, §2

B1: monoclonal antibody hGP 5C4 (antibody, V domains shown)
VH: EVKLQESGGGLVQPGRSLKLSCTASGFTFSDYFMSWVRQAPTRGLEWVASISSGGASAYWRDSVKGRFTISRDNAKSALYLQMDSLRSEDTATYFCARGELDFDYWGQGVMVAVSS
VL: ADPNSTLLSASVGDRVTLNCTASQNVYKNLAWYQQKLGEAPRLLLYSANSQTGIPSRFSGSGSGPDFTLTISSLQPEDVASYFCQQYYSGNTFGAGTKLELKR
notes: Rat hybridoma antibody (Lou/C rats), heavy chain gamma 2a, light chain kappa; also called ab 5C4; anti-GPVI mAb 5C4
- LU (Light Units) (peptide 20): 175 LU
- LU (Light Units) (peptide 93): 107 LU
- LU (Light Units) (peptide 46): 1 LU
- LU (Light Units) (peptide 13): 2050 LU
- LU (Light Units) (peptide 56): 759 LU
- LU (Light Units) (peptide 81): 141 LU
- LU (Light Units) (peptide 38): 1030 LU
- LU (Light Units) (peptide 76): 78 LU
- LU (Light Units) (peptide 107): 71 LU
- LU (Light Units) (peptide 110): 71 LU
- LU (Light Units) (peptide 114): 226 LU
- LU (Light Units) (peptide 30): 184 LU
- LU (Light Units) (peptide 75): 95 LU
- LU (Light Units) (peptide 72): 35 LU
- LU (Light Units) (peptide 50): 38 LU
- LU (Light Units) (peptide 21): 128 LU
- LU (Light Units) (peptide 82): 149 LU
- LU (Light Units) (peptide 122): 195 LU
- LU (Light Units) (peptide 45): 12 LU
- LU (Light Units) (peptide 90): 65 LU
- LU (Light Units) (peptide 121): 186 LU
- LU (Light Units) (peptide 44): 9 LU
- LU (Light Units) (peptide 61): 71 LU
- LU (Light Units) (peptide 79): 119 LU
- LU (Light Units) (peptide 101): 211 LU
- LU (Light Units) (peptide 3): 74 LU
- LU (Light Units) (peptide 83): 75 LU
- LU (Light Units) (peptide 36): 125 LU
- LU (Light Units) (peptide 24): 28 LU
- LU (Light Units) (peptide 42): 41 LU
- LU (Light Units) (peptide 88): 64 LU
- LU (Light Units) (peptide 94): 63 LU
- LU (Light Units) (peptide 124): 66 LU
- LU (Light Units) (peptide 129): 139 LU
- LU (Light Units) (peptide 69): 78 LU
- LU (Light Units) (peptide 130): 255 LU
- LU (Light Units) (peptide 59): 155 LU
- LU (Light Units) (peptide 52): 148 LU
- LU (Light Units) (peptide 6): 91 LU
- LU (Light Units) (peptide 18): 219 LU
- LU (Light Units) (peptide 53): 359 LU
